Reference: US11932673B2, “Sodium channel inhibitors” (priority 2017, dated 2024)

Key:
human Nav1.7 = human Nav1.7 (Homo sapiens, UniProt Q15858); test: QPatch patch-clamp on CHO cells stably expressing human Nav1.7, four-point concentration-response (Example 21); type: cell-based; details: every 15-minute application of equivalent concentrations
Method: The effect of these KnotBodies on cells expressing human Nav1.7 (huNav1.7) channel was then assessed using QPatch automated patch-clamp platform (Sophion). For the testing of Nav1.7 ion channel currents, CHO cells stably expressing human Nav1.7 (GenBank accession number NM 002977; cell line catalogue number CT6003, Charles River Discovery, Cleveland, USA) were subjected to the QPatch electrophysiology assay in the presence or absence of the KnotBody fusions or the antibody isotypes (negative controls). Internal and external physiological solutions were freshly prepared prior to the assay. […] To these measured control currents four ascending concentrations (0.37, 1.1, 3.3 and 10 μM) of KnotBody or parental antibody isotypes (control molecules) were applied to the external bathing solution containing 0.1% BSA. […] The elicited, maximum outward current values measured during the −10 mV activating step for each solution period (a control, baseline level of current was determined at 15 minutes after application of the control external recording solution and a test level of current was determined after 15 minutes of application of each concentration of KnotBody or its isotype control) and average inhibition was determined. […] From these concentration-response curves IC50 values were calculated.

[1] = tested on: in vitro rat BBB model system; type: in vitro ADME; details: Fab format, oligoclonal mixes of 3 Fabs at final 2 μM, controls 1 μM, blood side to brain side, 37° C.
Method: In order to assess the ability of these KnotBodies to cross the BBB, a ready to use in vitro rat BBB model system (Pharmacocell, Cat. No. RBT-24H) was used. In this model system rat brain endothelial cells were co-cultured with pericytes and astrocytes to mimic the in vivo BBB anatomy (Nakagawa, S. et al. (2009) Neurochem. Int. 54, 253-263). The in vitro rat BBB kit was cultured according to manufacturer's instructions and transendothelial electrical resistance (TEER) was measured prior to testing of KnotBodies to verify the integrity of the barrier. […] 21 KnotBody Fabs were tested for their ability to cross the in vitro BBB model system. […] The parent KnotBody KB_A12 was used as a negative control. Both positive and negative controls were expressed and purified in the Fab format as described above. […] The concentration of transcytosed Fabs in the lower chamber (referred as brain side) was determined using a sandwich ELISA. In this ELISA, Fabs were captured using an anti-CH1 antibody (provided by Hybridoma Reagent Laboratories) and detected using rabbit anti-human IgG Kappa light chain antibody (Abcam, Cat. No. ab195576) or anti-human IgG Lambda light chain antibody (Abcam, Cat. No. ab124719) followed by europium conjugated anti-rabbit antibody (Perkin Elmer, Cat. No. AD0105). […]

LOX-1 = LOX-1 (Homo sapiens, UniProt P78380); test: Phage TRF binding assay of adhiron-antibody fusions on LOX-1; details: monoclonal phage; LOX-1 directly immobilised; non-specific binding checked on cMET-FC, GAS6-CD4, FGFR4-CD4, UPA, B-gal
Method: In order to test the functionality of these adhiron-antibody fusions, monoclonal phage prepared from each clone was assessed for binding to LOX-1 in a TRF binding assay. In this assay, LOX-1 (immobilised directly on Maxisorp™ plates) binding of phage displaying adhiron-antibody fusion was detected using a mouse anti-M13 antibody (GE Healthcare) followed by europium conjugated anti-mouse antibody (Perkin Elmer). Parent KnotBodies KB_A07 and KB_A12 (EETI-II fusions) were included as controls. Proteins cMET-FC, GAS6-CD4, FGFR4-CD4, UPA and B-gal were used to examine non-specific binding.

trypsin = test: Phage trypsin binding assay, KB_A12 versus EETI-II cow ULVC-Ab; details: PEG precipitated phage, 12.5x and 0.5x
Description: Bovine antibodies have been described with natural ultra-long VH CDR3s containing a solvent exposed double stranded antiparallel sheet approximately 20 A° in length (referred to as the stalk) presenting a folded domain stabilised by 3 disulfide bonds (referred to as the Knob)^10. Zhang and colleagues have shown that the Knob domains of these cow ultra-long VH CDR3 antibodies (ULVC-Ab) can be replaced with other folded proteins such as erythropoietin^13. In this example, we assess the ability of a cow ULVC-Ab to present functional knottin fusions on phage in comparison with a KnotBody. In order to create a Knottin-cow UCLA fusion, the sequence between the first and the last cysteines of the knob region of the Cow ULVC-Ab BLV1H12 was replaced with the sequence of the trypsin binding knottin; EETI-II (EETI-II cow ULVC-Ab). A gene fragment encoding this construct was synthesised (Integrated DNA technologies, Table 21). This synthetic gene was cloned into the phage display vector pSANG4 using restriction sites NcoI and NotI and transformed into E. coli TG1 cells. […] In this assay, the binding of phage rescued from EETI-II cow ULVC-Ab and KB_A12 to trypsin was detected using an anti-M13 antibody followed by europium conjugated anti-mouse antibody (as described in example 3).

Chain of human Nav1.7 (Q15858 other isoform, or with tags, fused parts or gaps): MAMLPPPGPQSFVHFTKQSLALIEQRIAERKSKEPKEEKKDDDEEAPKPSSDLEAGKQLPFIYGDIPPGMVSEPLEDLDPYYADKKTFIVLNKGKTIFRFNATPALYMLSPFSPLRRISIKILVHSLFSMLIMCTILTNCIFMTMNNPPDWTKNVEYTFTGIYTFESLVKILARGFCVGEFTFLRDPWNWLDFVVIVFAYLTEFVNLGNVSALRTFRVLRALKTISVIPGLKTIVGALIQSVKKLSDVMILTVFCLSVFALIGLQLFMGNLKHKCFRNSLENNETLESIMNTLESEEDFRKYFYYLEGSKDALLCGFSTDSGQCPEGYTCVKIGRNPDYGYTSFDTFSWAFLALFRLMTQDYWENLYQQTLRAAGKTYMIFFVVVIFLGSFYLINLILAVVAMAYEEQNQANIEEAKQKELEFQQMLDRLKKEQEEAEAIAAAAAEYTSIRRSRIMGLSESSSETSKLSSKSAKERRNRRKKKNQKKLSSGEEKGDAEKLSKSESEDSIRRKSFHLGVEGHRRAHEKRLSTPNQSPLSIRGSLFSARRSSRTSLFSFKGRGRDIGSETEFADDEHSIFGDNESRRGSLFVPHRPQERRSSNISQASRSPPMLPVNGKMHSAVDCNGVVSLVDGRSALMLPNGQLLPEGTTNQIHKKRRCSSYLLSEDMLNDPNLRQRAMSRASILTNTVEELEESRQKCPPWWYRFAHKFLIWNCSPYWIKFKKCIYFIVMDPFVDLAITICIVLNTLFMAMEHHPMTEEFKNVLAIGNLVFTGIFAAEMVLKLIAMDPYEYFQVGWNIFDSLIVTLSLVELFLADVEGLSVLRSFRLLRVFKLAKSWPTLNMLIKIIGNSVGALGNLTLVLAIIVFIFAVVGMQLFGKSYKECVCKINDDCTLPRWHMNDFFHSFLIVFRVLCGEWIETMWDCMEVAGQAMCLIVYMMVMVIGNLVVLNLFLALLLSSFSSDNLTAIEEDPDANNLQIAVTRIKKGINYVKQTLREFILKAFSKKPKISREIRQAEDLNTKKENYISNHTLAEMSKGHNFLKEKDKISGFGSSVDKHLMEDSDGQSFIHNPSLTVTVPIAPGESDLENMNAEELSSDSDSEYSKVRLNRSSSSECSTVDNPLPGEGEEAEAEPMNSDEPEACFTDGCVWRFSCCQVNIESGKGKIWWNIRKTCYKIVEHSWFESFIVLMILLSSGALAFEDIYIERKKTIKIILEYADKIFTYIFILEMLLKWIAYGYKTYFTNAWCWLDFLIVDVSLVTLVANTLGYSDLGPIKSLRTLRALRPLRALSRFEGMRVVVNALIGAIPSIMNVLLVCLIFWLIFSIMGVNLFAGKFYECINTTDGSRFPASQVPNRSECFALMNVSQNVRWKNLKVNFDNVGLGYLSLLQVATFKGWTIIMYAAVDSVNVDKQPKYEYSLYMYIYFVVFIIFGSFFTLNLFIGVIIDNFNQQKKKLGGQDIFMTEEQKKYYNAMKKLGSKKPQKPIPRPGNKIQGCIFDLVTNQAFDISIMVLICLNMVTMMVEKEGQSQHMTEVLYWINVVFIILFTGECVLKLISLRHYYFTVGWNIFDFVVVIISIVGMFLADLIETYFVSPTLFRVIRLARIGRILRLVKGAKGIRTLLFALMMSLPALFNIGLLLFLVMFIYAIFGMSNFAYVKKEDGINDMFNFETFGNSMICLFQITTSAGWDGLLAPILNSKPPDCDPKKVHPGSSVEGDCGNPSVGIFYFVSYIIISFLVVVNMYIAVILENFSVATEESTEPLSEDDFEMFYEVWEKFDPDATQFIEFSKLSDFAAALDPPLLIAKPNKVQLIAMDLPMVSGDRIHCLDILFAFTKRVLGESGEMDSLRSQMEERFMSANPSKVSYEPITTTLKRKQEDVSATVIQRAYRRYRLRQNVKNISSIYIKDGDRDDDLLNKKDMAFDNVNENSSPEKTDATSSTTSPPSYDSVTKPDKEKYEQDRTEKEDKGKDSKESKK

B1: KB_A12: EETI-II VL CDR2 KnotBody, D1A12 VH, VL SEQ ID NO: 105/373; parental/isotype control (antibody, V domains shown)
VH: EVQLVESGGGLVRPGGSLRLSCAASGFTFSSYAMSWVRQAPGKGLEWVSAISGSGGSTYYADSVKGRFTISRDNTKNSLYLQMTSLRADDTAFYYCVKDFGPGYGTGWFDYWGPGTLVTVSS
VL: QSVLTQPPSVSEAPRQRVTITCSGSSSNIGNNAVNWYQQLPGKAPKLLIYAAGRCPRILMRCKQDSDCLAGCVCGPNGFCGANSGVSDRFSAAKSGTSASLAINGLRSEDEADYYCAAWDDSLNGYVFGTGTKLTVLG
With B1 the cumulative current loss (human Nav1.7) was about 5%, the “% transcytosis after 6 h” value [1] was 0.1% and the “binding to LOX-1” value (LOX-1) was “no detectable binding to the LOX-1”. The “phage binding to trypsin” value (trypsin) was “superior binding to trypsin compared to the EET-II-Cow ULVC-Ab fusion”.
